From article PMC11342335

Key:
Assay in all cases: SPR; Biacore 8K, affinity determination of second-generation constructs; 30-100 RU of ABD035-containing constructs captured on immobilised HSA (CM5); 1-200 nM human sortilin injected 180 s at 30 µl/min, 25°C, PBST; 60 min dissociation; 1:1 Langmuir fit; apparent constants; n=3 technical replicates
[1] = target: ABD-A3-(G4S)3-PGRNC6* (His6-ABD035-G4S-A3-(G4S)3-PGRNC6*) (human) (UniProt P28799)
[2] = target: A3-ABD (His6-A3-G4S-ABD035)
[3] = target: ABD-A3-(G4S)3-NTC3 (His6-ABD035-G4S-A3-(G4S)3-NTC3)
[4] = target: ABD-A3-(G4S)3-PGRNC3 (His6-ABD035-G4S-A3-(G4S)3-PGRNC3) (human)

Sequence of human sortilin (R&D Systems, 3154-ST) (Q99523 78-755): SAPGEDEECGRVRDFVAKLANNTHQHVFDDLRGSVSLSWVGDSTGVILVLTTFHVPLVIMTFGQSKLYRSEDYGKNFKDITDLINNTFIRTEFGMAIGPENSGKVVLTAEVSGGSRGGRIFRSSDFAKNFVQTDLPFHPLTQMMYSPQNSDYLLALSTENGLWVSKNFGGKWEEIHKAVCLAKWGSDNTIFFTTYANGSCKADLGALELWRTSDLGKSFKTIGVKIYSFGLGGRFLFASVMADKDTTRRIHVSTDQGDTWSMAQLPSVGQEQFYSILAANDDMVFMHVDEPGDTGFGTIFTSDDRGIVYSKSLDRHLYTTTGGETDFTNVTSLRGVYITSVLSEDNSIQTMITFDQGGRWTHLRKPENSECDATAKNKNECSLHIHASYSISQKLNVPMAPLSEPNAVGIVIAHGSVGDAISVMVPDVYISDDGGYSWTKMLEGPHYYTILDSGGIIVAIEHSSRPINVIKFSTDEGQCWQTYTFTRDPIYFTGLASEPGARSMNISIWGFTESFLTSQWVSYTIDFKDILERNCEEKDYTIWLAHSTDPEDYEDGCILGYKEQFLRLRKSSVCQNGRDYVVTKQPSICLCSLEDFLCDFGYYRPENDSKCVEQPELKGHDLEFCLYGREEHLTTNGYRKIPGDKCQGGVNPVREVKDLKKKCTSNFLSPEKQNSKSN

Kd [1]: 0.319 nM | Kd [2]: 70.4 nM | Kd [3]: 0.303 nM | Kd [4]: 0.31 nM
Substance: human sortilin (R&D Systems, 3154-ST) (from UniProt Q99523 78-755) (receptor)
